Literature values in patent publication US9817004B2, “Development and use of cysteine-labeled fluorescent probes of unbound analytes” (priority 2008, dated 2017).

Conditions: I-FABP mutants labeled with acrylodan; from U.S. Pat. No. 5,470,714; cited from earlier work

| Molecule | fluorescence response to FFAu binding |
| --- | --- |
| Thr81Cys: I-FABP mutant Thr81Cys labeled with acrylodan (Kleinfeld '714) (protein, UniProt P02693 2-132, looked up, variant T81C, acrylodan label) Fatty acid-binding protein, …: AFDGTWKVDRNENYEKFMEKMGINVVKRKLGAHDNLKLTITQEGNKFTVKESSNFRNIDVVFELGVDFAYSLADGTELTGCWTMEGNKLVGKFKRVDNGKELIAVREISGNELIQTYTYEGVEAKRIFKKE | unresponsive to FFAu binding |
| Thr83Cys: I-FABP mutant Thr83Cys labeled with acrylodan (Kleinfeld '714) (protein, UniProt P02693 2-132, looked up, variant T83C, acrylodan label) Fatty acid-binding protein, …: AFDGTWKVDRNENYEKFMEKMGINVVKRKLGAHDNLKLTITQEGNKFTVKESSNFRNIDVVFELGVDFAYSLADGTELTGTWCMEGNKLVGKFKRVDNGKELIAVREISGNELIQTYTYEGVEAKRIFKKE | unresponsive to FFAu binding |
